Experimental findings from the domain aggregation screens of Martell et al. (2025) are described below.

This series is described as follows: soluble fraction after stress (log2 fold change); higher = more stays soluble; pooled small domains, quantitative proteomics. The settings on record: stress: pH 4. The procedure, abridged: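 Custom libraries of small protein domains were pooled and exposed to pH 4. High-throughput quantitative proteomics then measured the log2 fold change in the amount of each domain still soluble, with higher values meaning more stayed soluble. This soluble-fraction fold change stands for aggregation propensity.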

Regarding “HMDRENNITAGREILEKELSRLALNMKMVNLQDYAARFNVKHSDDILAGIGAGDIRPAHIVNAIAEKLT”, the “soluble fraction (log2)” value is -0.304.

Regarding “HMDREQLELYVGEVRVLQVGELRRIAIGNGKVLQASALDRGQLLLIPEAPGQSVLYLWTRDGTERHLSISV”, the “soluble fraction (log2)” value was -0.81.

Consider “HMDRESFIKLGRELARSAFAHVGQKSTEKALETAADVLRLKDPNEVLARLGSAELTGRQVVQAIYPELI”, for which the “soluble fraction (log2)” value is 0.0233.

“HMDRFRYYITEDSVQRGTYPYVDETTLKRFTSQLHKYEQGMISAYGYLEYSKPLTAEQIKDYTLMPSP”: the “soluble fraction (log2)” value was -0.485.

On to “HMDRFVLQLSKRYYDSSIEGVRKALAAFPVKTELLDQDRGGRPFYHENGKENEPVFRIMFHPEEGM”, for which the “soluble fraction (log2)” value is -0.116.

On to “HMDRIISTPMPGRVVKIPVTEGEPVAKGATVITISAMKMESEYKSPIDGIVKKIHVSEGDNINANQPLIEI”, for which the “soluble fraction (log2)” value is -0.112.

Consider “HMDRKFFYEDQYQDYLGEELKVSFFDTDNKKTVRGTLSEVTPHGIKINLEQETQEIPFSSIIQANLI”, for which the “soluble fraction (log2)” value was -0.44.

Take “HMDRPARDEAQSWLADVLADGPVPTAEIREEAEAAGLAWRTIQRARIALSVEPIRGDGRNAWLWQLPG”: the “soluble fraction (log2)” value was 0.377.

“HMDRQIQITVAENEAGQRLDAFLAAKIPDMSRSYIQKLIEDGLILVNGQSTKGKVKTYSGMNIEVYMPE”: the “soluble fraction (log2)” value came to 0.22.

In the case of “HMDRRDEYHQHLLRLLLSGEIRDKDELQRRKVKLSGEYGLAGVPKNSETLALVPPDRLPEVLDILR”, the “soluble fraction (log2)” value was -0.289.

On to “HMDRSIGDIIAELRDLSAEQVERVLAHQRETGVRFGEAAVALGYASKEDVLFALSQQFHYPYAPEE”, for which the “soluble fraction (log2)” value was -0.946.

Turning to “HMDRSVTAAELRLAAMDLLARREHGSQELEAKLSRRFHKRHYDVELLRSVIEQLTVEGLLSDERFAVS”, the “soluble fraction (log2)” value was -1.07.

For the sequence “HMDRVTYPVSFNGKVRFQLELDAGMNAKEVETAALGHEKTAAQIEGKTIRKVIVVPGRIINIVV”, the “soluble fraction (log2)” value was -0.404.

For “HMDRWTPLVVAVLSRGSHRFGELRAAIGGITPKVLTDTLRSMERDGLITRDQAPGVPPRVDYALTPLGS”, the “soluble fraction (log2)” value was -0.126.

With “HMDSALKDDLNAFVKKLDVESQTLFMRRYFLGESVSSLASRFEMSEDNVGVKLFRIRAKLKKYLTGKGYD”, the “soluble fraction (log2)” value was -0.445.

With “HMDSAMMDLVMRVQLALFTKGYDVGIIDGKIGPKTRAQIKRYQSDNRLSSTGTLTTSLLTSLGIQ”, the “soluble fraction (log2)” value came to 0.00457.

Take “HMDSATDRVALKELLNTLSARERTIITLRYFSDQTQTQVAKSLGISQVQVSRLENAILQRLRKL”: the “soluble fraction (log2)” value is -0.271.

Take “HMDSDELEAFRLITSVNGVGPKLGIAILSEFTAEKLTVFIASGDAKALTAASGVGIKLAQRIVLELKDKVG”: the “soluble fraction (log2)” value was -0.184.

On to “HMDSDFIKIEVLFNERNRLDLKAMMEASGFTDRGQFLSIMADLTGDENWDRNLDRGDIFYLPRSFTI”, for which the “soluble fraction (log2)” value was -1.6.

For the sequence “HMDSDIGQQLKILLTVGTFMPSTELKAIAQQFGMKKPTDLKEWVELESDTQRIKGNPTKGYWINEINDL”, the “soluble fraction (log2)” value was -0.262.

“HMDSEEVYQMTKHKMDAAQISVAKRIHINLVLVKLLELHHLGYDLRHYHAQHHAFIKRLNLPEYFRFD”: the “soluble fraction (log2)” value was -0.832.

With “HMDSEKVLTNLKEELVLQLSNIEPYGYVPSQYWYSKVQRVQSVQELGKYVDGDLEAFVMKYAEDWESQK”, the “soluble fraction (log2)” value is -0.951.

As to “HMDSGFMRTTQSYTVARLAEIFRLSGEDYLAVLREYDGWYQDLTSTKDLIRKGSDVPVPEGV”, the “soluble fraction (log2)” value is -1.02.

With “HMDSGLEQAKTAALENAELETSQVTFIKAELDYDDGKKVYEIEFVTSAMKYEYQVKADDFSILEMSKETIE”, the “soluble fraction (log2)” value was -0.129.

On to “HMDSHSAESVRQRIKDMIAAEASKSILSDDTIVENLKSEGIEIARRTVAKYRESLNIPSSIQRRRIARSEA”, for which the “soluble fraction (log2)” value amounted to 0.0843.

For the sequence “HMDSILMPGVVNKELREALAILKNEGIGWADPEYASSTVTRNYVISTDPVEGIELAPGQKVRLVVSLGPKP”, the “soluble fraction (log2)” value is 0.153.

Take “HMDSIQMKNNSILYYGNTAGYLDAKRNTAVVDPMFRTDEMESYLSEQKGLSVEWASGTYDRLT”: the “soluble fraction (log2)” value was -0.921.

In the case of “HMDSLEIEEPITVKSLSAASGLKISDIIRKLMQEGIMATANQVIDREQAEAVLIDYNVDLVVKR”, the “soluble fraction (log2)” value worked out at 0.0392.

For the sequence “HMDSLNWVEKIINTLPEQQRLIIQMRDIEQYEFAEIAKILEMNETAIRVALSRARKTIREFMIKTH”, the “soluble fraction (log2)” value is at least 0.43.

In the case of “HMDSLSLTELRIDSASPWIGNRISDFSPYAGELVIMIIRGEETIVPNGDTIILDKDLLVIYSS”, the “soluble fraction (log2)” value is -1.39.

“HMDSNFNYELVGFRLDDMGLNSSVIVKRNNQEFVIQKGDLLENKYLLNSVTKKNINFSYLGKNYQI”: the “soluble fraction (log2)” value is -0.731.

Consider “HMDSNPLSEREQEVLQLVAKGASNQTIAEQLFLSNGTIRNYMTAIFNKLNANNRTDAVRIARENGW”, for which the “soluble fraction (log2)” value is -0.24.

As for “HMDSPVEEWANRGLAYDPSLVTETMAKLYAKQGQIGLARKAFKRLALIYPEKSVYFAFQLKKLSNN”, the “soluble fraction (log2)” value is 0.0712.

“HMDSPVLTAEIKALIDKELEQNAVKLATGLKKQRKRATDIHDALIRQGHEVSYRTVVRYIRNKTAQTS”: the “soluble fraction (log2)” value is at least 0.43.

As for “HMDSTSEILKVIQNIVKKEDPYHPLSDDKISNLLNDLDYQISRRTVAKYRDILTIPSSSKRRKL”, the “soluble fraction (log2)” value was -0.0776.

For the sequence “HMDSVEMFSPILGMNANMDLDTLTQTRDKLLEKYKDDEQLIGLVNKTYDYFNEILLKQFLIEELEKNE”, the “soluble fraction (log2)” value is -0.207.

Take “HMDSVFGVVTSSDGVKLRKEASTISKVLTVLPYGTEVDVDRIGSEWIRIVTDGGQKGYVSADYLAVREGER”: the “soluble fraction (log2)” value was -0.1.

As to “HMDSVPEEQLRQLALDKAKEVKRWGQPVELAKMNAHDRRIIHINLQDDPEIETRSEGEGALKSVIISLKK”, the “soluble fraction (log2)” value came to 0.135.

In the case of “HMDSYADVLSDYRGKYKTNTISGLKGLRDKIREDMLAAADSLDFEKAALLRDEMNDLNKKIELKEKT”, the “soluble fraction (log2)” value was -0.486.

Turning to “HMDTERLYAYAWQTHLKQFGLNISEEEIRQFVGVDDRIVHSFYAKTVPLDDFENTMFSLGEIIQQSL”, the “soluble fraction (log2)” value was -2.08.

For the sequence “HMDTFNVIARQEIDGILYEYKIMTVEDYKNQSPENLAVIYENIKAVMEQYDLSEDDADAILVDLLG”, the “soluble fraction (log2)” value was -1.51.

Turning to “HMDTIRINSGSTVKEVAEYLGIPVPEVIKKLMSMGELATLTKTLSDDHIEVLAEEFEKKIKIVHVGEEAD”, the “soluble fraction (log2)” value was -0.61.

In the case of “HMDTITDSYTLEKGKLRAKVMEYELPESKKKEYSATFEYRGVYYHMIGIIEKADFEEILKNLHFP”, the “soluble fraction (log2)” value is -0.53.

Consider “HMDTIVVAARSIQARQTLTESDLRVEEQEIGAASDKYYTDIAEAVGLVSSRRLSPGQPILRTM”, for which the “soluble fraction (log2)” value was -0.273.

“HMDTLKDFISGVSIVFENKYSVGDNVTIGDFRGDVIELGMKTTKIRAYTGEVLIIPNHLVEKVINH”: the “soluble fraction (log2)” value is -0.665.

With “HMDTLRARQEAAYRFLSAIAGDWRNYEEANRALFAGDAARFQDLTESWPADVRDHARHLASAAFSS”, the “soluble fraction (log2)” value was -1.15.

Take “HMDTNAIIGLRIKNLRTEKKYTLKYLSENTGLSIGFLSQLERGMTSIAIDSLDKISKVLDVELSSFFT”: the “soluble fraction (log2)” value was -0.14.

On to “HMDTNELIDRYVNEVGQHLPRKTRADIEMELRSLLLDTLEEQSGGEPTPKMAAEVLREFGHPEEIAAQYH”, for which the “soluble fraction (log2)” value is -0.755.

“HMDTRKKLEQIFKLFDKTGTGMVNIDEFKSVLKLFMEEIDEKFGNYFIAYFDENGDGKIEFEEFADVVL”: the “soluble fraction (log2)” value is -0.462.

Take “HMDTSAHEVLSAIRSIIEDEDKRHPLSDEAITSRLSQQGYDIARRTVAKYRERLGLPVARLRRE”: the “soluble fraction (log2)” value was determined as 0.376.
